Experimental findings from patent publication US20170137467A1 (CHROMOTEK, published 2017) are described below.

Residue numbers refer to the chain shown, from its start. Numbers in names are those of the source. Ends that are not written are not given here. * marks the point of attachment. Biotin = O=C1N[C@H]2[C@H](CS[C@H]2CCCCC(=O)*)N1; ethylene glycol linker = not defined here

The target of assay [1] is T1, GFP with a C-terminal BC2 tag (GFPBC2T) (human, UniProt P42212 1-238 = GFP).
T1 construct: Expressed in E. coli; also called C-terminally BC2-tagged GFP
The assay can be described thus: binding studies with GFPBC2T.

The target of assay [2] is T2, pTag2 peptide (biotinylated) (reading uncertain).
T2 construct: Immobilised on streptavidin biosensors
T2 peptide: {Biotin-ethylene glycol linker}-ADRVRAVSHWSS
Briefly: BLI, biotinylated peptide on streptavidin biosensor, BC2-Nb in solution, 1:1 model. The protocol:
(§1) Biolayer interferometry (BLI)-based affinity measurements were used to assess two improved variations of the original BC2T sequence (a: […], pTag1 SEQ ID NO:33; b: […], pTag2 SEQ ID NO:34) in comparison with the original BC2T sequence (c: BC2T SEQ ID NO:4).
(§2) The shaking rate was 1200 rpm. As a reference, each peptide was also incubated with BLItz buffer only according to the protocol above. […] The sensor was regenerated by sequential dips into 10 mM glycine pH 2.0 and BLItz buffer (repeated three times). Raw data were analysed using the software BLItz Pro (fortéBio) and a 1:1 binding model.
In general terms: BLI is a label-free optical method that tracks binding on a fibre tip over time.

In assay [3] the target is T3, BC2T peptide (biotinylated) (human, reading uncertain).
T3 construct: Immobilised on streptavidin biosensors; also called original BC2T; wildtype BC2T
T3 peptide: {Biotin-ethylene glycol linker}-PDRKAAVSHWQQ
Described as above. The protocol:
as §1, §2

The target of assay [4] is T4, pTag1 peptide (biotinylated) (reading uncertain).
T4 construct: Immobilised on streptavidin biosensors
T4 peptide: {Biotin-ethylene glycol linker}-PDRVRAVSHWSS
The assay is described as above. The method, then:
as §1, §2

The target of assay [5] is T5, eGFP-PCNA with C-terminal BC2 tag (eGFP-PCNABC2T) (human, UniProt P12004 1-261).
T5 construct: Expressed in HEK293T or HeLa cells; not shown: eGFP
The assay can be described thus: immunocytochemistry on fixed HeLa cells expressing GFP-PCNABC2T. The protocol:
After 24 h, cells were washed once with PBS and fixed with 4% w/v paraformaldehyde (PFA) in PBS for 15 min at RT or with methanol for 15 min at −20° C. After removal of the fixative and washing twice with PBS, cells were blocked and permeabilized with 3% w/v BSA and 0.1% v/v Triton X-100 in PBS for 1 h at RT. […] Unbound nanobody and DAPI were removed by washing 3 times with a mixture of PBS and 6% v/v 5 M NaCl in H₂O. Images of FIG. 4 b and FIG. 10 b were acquired with an Image Xpress micro XL system. Confocal images of FIG. 10 a were acquired with an ImageXpress Micro Confocal.

The target of assay [6] is T5, eGFP-PCNA with C-terminal BC2 tag …. The assay can be described thus: Western blot probed with BC2-NbAF488. (A western blot detects proteins with antibodies after separation by electrophoresis.)
In assay [7] the target is T6, mCherry-Vimentin with C-terminal BC2 tag (mCherry-VIMBC2T) (human, UniProt P08670 1-466).
T6 construct: Expressed in HEK293T or HeLa cells; also called mCherry-VimentinBC2T; not shown: mCherry fluorescent protein
The assay can be described thus: Western blot probed with BC2-NbAF488.

Assay [8] addresses T7, mCherry-Vimentin (untagged) (UniProt P08670 1-466).
T7 construct: Control without the BC2 tag; not shown: mCherry fluorescent protein
Briefly: Western blot probed with BC2-NbAF488.

Assay [9] has as its target T8, BC2T W10E library peptide (human).
T8 construct: also called BC2TW10X: E
T8 peptide: Ac-PDRKAAVSHEQQ-NH2
Briefly: peptide library pulldown on immobilized Nb, LC-MS of supernatant; ratio vs GFP-Nb control (1 = not captured, 0 = captured). From the text:
(§3) In total, 12 different BC2T libraries displaying all 20 proteinogenic amino acids in one single position of the peptide were used in immunoprecipitation experiments. […] The direct comparison with the GFP-Nb made it possible to determine the quantitative degree of peptide capture without the need of labeled standards. […] The more peptide was captured the more the value approximates 0. It was not possible to discriminate between isoleucine (I) and leucine (L) peptide versions since these peptides are isobaric.
(§4) To investigate the binding specificity of the BC2T and derived mutants peptide libraries for each amino acid position of the sequence […] (SEQ ID NO:4) were synthesized with acetyl and amide groups located at the N-termini or C-termini respectively (Intavis). […] Incubations were performed in 300 μl PBS/0.01% CHAPS for 1 h on a HulaMixer (Life Technologies). Subsequent to a centrifugation step 10 μl supernatant were analyzed in a LC-MS procedure. Peptides were separated using an UltiMate3000 RSLCnano System (Thermo Scientific), composed of a C18 PepMap100μ-Precolumn (300 μm×5 mm; particle size: 5 μm; pore size: 100 Å—Thermo Scientific) and a C18 analytical column (Acclaim Rapid Separation LC (RSLC) Column: 150 mm×5 mm; particle size: 2.2 μm; pore size: 100 Å—Thermo Scientific). A step gradient was applied starting at 8% and ending after 20 min at 30% eluent B (80% acetonitrile, 20% H₂O, 0.1% formic acid).

The target in assay [10] is T9, BC2T Q12E library peptide (human).
T9 peptide: Ac-PDRKAAVSHWQE-NH2
Described as above.
Text: as §3, §4

In assay [11] the target is T10, BC2T Q11D library peptide (human).
T10 peptide: Ac-PDRKAAVSHWDQ-NH2
The description is as above.
Text: as §3, §4

In assay [12] the target is T11, BC2T W10D library peptide (human).
T11 construct: also called BC2TW10X: D
T11 peptide: Ac-PDRKAAVSHDQQ-NH2
The assay is described as above.
Text: as §3, §4

For another assay, the target named is T12, BC2T H9D library peptide (human).
T12 peptide: Ac-PDRKAAVSDWQQ-NH2
The assay is described as above.
Text: as §3, §4

Assay [13] concerns the target T13, BC2T Q12D library peptide (human).
T13 peptide: Ac-PDRKAAVSHWQD-NH2
The description is as above.
Text: as §3, §4

The target of the next assay is T14, BC2T S8E library peptide (human).
T14 construct: also called BC2TS8X: E
T14 peptide: Ac-PDRKAAVEHWQQ-NH2
Described as above.
Text: as §3, §4

A further assay deals with T15, BC2T S8D library peptide (human).
T15 construct: also called BC2TS8X: D
T15 peptide: Ac-PDRKAAVDHWQQ-NH2
The assay is described as above.
Text: as §3, §4

Another assay addresses T16, BC2T H9E library peptide (human).
T16 peptide: Ac-PDRKAAVSEWQQ-NH2
The assay is described as above.
Text: as §3, §4

Assay [14] has as its target T17, BC2T Q11E library peptide (human).
T17 peptide: Ac-PDRKAAVSHWEQ-NH2
Described as above.
Text: as §3, §4

T5 sequence (P12004 other isoform, or with tags, fused parts or gaps limits assumed): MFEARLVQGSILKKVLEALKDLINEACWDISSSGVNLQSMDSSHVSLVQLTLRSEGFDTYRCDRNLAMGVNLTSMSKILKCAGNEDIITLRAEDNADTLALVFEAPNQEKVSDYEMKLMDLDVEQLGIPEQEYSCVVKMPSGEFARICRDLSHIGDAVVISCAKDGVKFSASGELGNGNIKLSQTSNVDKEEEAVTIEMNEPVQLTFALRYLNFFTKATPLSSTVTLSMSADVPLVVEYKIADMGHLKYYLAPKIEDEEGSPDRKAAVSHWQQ
T7 sequence (P08670 whole entry): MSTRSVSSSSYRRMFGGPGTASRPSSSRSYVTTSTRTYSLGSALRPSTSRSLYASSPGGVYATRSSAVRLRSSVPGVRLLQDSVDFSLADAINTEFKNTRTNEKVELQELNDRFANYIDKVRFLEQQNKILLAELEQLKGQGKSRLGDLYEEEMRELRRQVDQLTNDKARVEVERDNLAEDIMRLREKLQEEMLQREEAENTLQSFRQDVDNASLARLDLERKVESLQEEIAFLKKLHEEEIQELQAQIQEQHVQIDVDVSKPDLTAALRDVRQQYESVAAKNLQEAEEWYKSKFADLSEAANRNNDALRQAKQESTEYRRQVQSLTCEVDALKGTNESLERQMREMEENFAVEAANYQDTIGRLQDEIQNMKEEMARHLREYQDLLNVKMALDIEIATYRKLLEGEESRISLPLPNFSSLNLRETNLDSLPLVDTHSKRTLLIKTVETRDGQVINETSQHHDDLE
T6 sequence (P08670 other isoform, or with tags, fused parts or gaps): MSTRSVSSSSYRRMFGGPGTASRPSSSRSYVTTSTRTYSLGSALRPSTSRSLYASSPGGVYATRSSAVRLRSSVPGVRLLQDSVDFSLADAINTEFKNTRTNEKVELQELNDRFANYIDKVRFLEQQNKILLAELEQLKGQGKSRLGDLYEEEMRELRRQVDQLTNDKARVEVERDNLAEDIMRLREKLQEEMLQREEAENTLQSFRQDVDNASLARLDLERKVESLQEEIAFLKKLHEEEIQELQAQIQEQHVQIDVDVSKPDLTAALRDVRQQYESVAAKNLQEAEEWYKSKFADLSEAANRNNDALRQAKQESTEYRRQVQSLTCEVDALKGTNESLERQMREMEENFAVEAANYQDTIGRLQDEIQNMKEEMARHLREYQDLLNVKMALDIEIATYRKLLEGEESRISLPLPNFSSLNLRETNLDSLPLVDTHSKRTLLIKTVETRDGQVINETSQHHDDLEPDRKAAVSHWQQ

B1: BC2-NbC50A_C102S (VHH)
VHH: QVQLVESGGGLVQPGGSLTLSCTASGFTLDHYDIGWFRQAPGKEREGVSAINNSDDDTYYADSVKGRFTIFMDNAKDTVYLQMNSLKPEDTAIYYCAEARGSKRGRYEYDFWGQGTQVTVSS
notes: Mutant without the additional disulfide bond between CDR3 and FR2
B1: the binding result in assay [1] was “no binding”.

B2: BC2 nanobody (BC2-Nb) (VHH)
VHH: B1 VHH with A50C, S102C
notes: Alpaca VHH, 122 aa; in solution at 5-50 nM in the BLI assay
In assay [2], B2 had a Kd of 1.9 nM, a koff of 0.0002 s⁻¹ and a kon of 110000 M⁻¹ s⁻¹. In assay [3], this molecule registered a dissociation constant (Kd) of 2.6 nM, a koff of 0.0005 s⁻¹ and an on-rate constant (kon) of 190000 M⁻¹ s⁻¹. For the same molecule, in assay [4], the Kd came to 0.7 nM, the koff turned out to be 6.8e-05 s⁻¹ and the association rate constant (kon) is 92000 M⁻¹ s⁻¹.

B3: BC2-NbATTO647 (VHH)
VHH: B1 VHH with A50C, S102C
modifications: Atto647 coupled chemically with the NHS-activated dye (sites not given)
notes: also called fluorescently labeled BC2-Nb (ATTO647); not shown: C-terminal 6xHis-tag added by the pHEN6 vector
In the case of B3, the binding result in [5] is “binds”.

B4: BC2-NbAF488 (VHH)
VHH: B1 VHH with A50C, S102C
modifications: AlexaFluor488 coupled chemically with the NHS-activated dye (sites not given)
notes: also called BC2-Nb488; fluorescently labeled BC2-Nb (AlexaFluor488); not shown: C-terminal 6xHis-tag added by the pHEN6 vector
With B4, the binding result was “binds” in assay [6], “binds” in assay [7] and “no binding” in assay [8].

B5: BC2-Nb(R106S) (VHH)
VHH: B1 VHH with A50C, S102C, R106S
notes: Headlock mutant; immobilized on beads in the library pulldown
For the molecule B5, the ratio was 1.1 in assay [9]; 0.7 in assay [10]; 0.6 in [11]; 1 in [12]; 0.5 with BC2T H9D library peptide; 0.9 in assay [13]. Also, the ratio was 1 with BC2T S8E library peptide, 0.9 with BC2T S8D library peptide, 0.6 in the assay with BC2T H9E library peptide and 0.5 in assay [14].

Broadly, the Kd is the constant that tells how readily two partners part at equilibrium. Higher therefore signals weaker binding. In general, koff refers to a measure of how fast the partners let go of each other. A high value points to fast dissociation. One may read the kon as the rate constant with which the complex forms. A low value points to slow association.
